Results on one molecule are retold here after paper PMC5303823, “DEK-targeting DNA aptamers as therapeutics for inflammatory arthritis”.

For the data set, the target named is T1, DEK (recombinant, baculovirus) (UniProt P35659 1-375).
T1 sequence: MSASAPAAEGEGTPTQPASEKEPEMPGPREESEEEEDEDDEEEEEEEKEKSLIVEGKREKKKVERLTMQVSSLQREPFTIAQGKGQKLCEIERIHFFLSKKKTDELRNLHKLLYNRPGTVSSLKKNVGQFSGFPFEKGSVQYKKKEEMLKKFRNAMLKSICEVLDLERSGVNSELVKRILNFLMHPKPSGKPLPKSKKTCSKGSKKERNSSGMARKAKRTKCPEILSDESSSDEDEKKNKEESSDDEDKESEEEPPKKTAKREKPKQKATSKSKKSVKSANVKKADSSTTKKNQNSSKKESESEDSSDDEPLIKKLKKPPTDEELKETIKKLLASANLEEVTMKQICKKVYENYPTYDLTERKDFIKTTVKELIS
The data set is described as follows: pull-down, biotinylated aptamer on magnetic beads, immunoblot; two DEK concentrations, overnight 4 C; Selection and dot blot: 20 mM Tris pH 7.6, 100 mM NaCl, 5 mM MgCl2 (selection at room temperature; dot blot with 100 ug/ml salmon sperm DNA); pull-down: overnight at 4 C, PBS washes. As to conditions: protein: recombinant; tags: His tag (SELEX resin); label: biotin (pull-down on magnetic beads). In general terms: Immunoblotting shows a protein as a band on a membrane.

Consider GGGGTTAAATATTCCCACATTGCCTGCGCCAGTACAAATAG (ssDNA) [DTA-64], for which the binding result is reported as “binds”.
